Here are results for one molecule from patent US6774106 (Amgen, dated 2004).

Assay [1] deals with T1, mouse BCMA expressed on 293 cells (sense pmBCMA vector) (mouse, UniProt O88472 1-185).
T1 construct: also called exogenous BCMA; BCMA gene
T1 sequence: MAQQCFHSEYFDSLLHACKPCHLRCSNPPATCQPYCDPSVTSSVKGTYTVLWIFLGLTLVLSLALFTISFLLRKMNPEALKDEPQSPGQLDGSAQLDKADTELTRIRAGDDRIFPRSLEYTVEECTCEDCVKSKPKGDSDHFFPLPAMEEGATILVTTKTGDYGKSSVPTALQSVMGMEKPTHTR
Nature of the assay: FACS on transfected 293 cells, G70/APRIL-Flag then FITC anti-Flag antibody. The procedure:
(§1) FIGS. 14A, 14B and 14C show soluble mouse G70/APRIL binding to 293 cells expressing the BCMA gene. Human 293 cells transfected with the pmBCMA and pcDNA3 vectors were incubated with G70/APRIL-Flag, followed by FITC-conjugated anti-Flag antibody staining for FACS analysis. A. 293 cells transfected with pcDNA3 vector only. B. 293 cells transfected with antisense pmBCMA vector. C. 293 cells transfected with sense pmBCMA vector.
(§2) Human 293 cells transfected with the phTACI and pcDNA3 vectors were incubated with G70/APRIL-Flag, followed by FITC-conjugated anti-Flag antibody staining for FACS analysis.

In assay [2] the target is T2, human TACI expressed on 293 cells (phTACI vector) (human, UniProt O14836 1-293).
T2 construct: also called hTACI gene
T2 sequence: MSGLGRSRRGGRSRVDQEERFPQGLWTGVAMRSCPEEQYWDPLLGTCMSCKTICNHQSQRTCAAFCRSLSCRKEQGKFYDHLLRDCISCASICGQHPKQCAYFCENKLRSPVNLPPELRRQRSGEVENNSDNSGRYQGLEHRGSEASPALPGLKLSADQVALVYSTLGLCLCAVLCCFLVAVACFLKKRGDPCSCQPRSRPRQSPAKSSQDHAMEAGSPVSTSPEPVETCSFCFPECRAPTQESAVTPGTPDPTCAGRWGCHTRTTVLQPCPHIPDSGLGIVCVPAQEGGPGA
The assay is described as above. The procedure: as §1, §2

B1: Soluble murine APRIL-Flag protein (FLAG-tagged soluble mouse APRIL) (ligand)
chain: MDYKDDDDKKHKKKHSVLHLVPVNITSKDSDVTEVMWQPVLRRGRGLEAQGDIVRVWDTGIYLLYSQVLFHDVTFTMGQVVSREGQGRRETLFRCIRSMPSDPDRAYNSCYSAGVFHLHQGDIITVKIPRANAKLSLSPHGTFLGFVKL
notes: also called Flag-APRIL; Flag-mAPRIL
Take B1: the binding result in assay [1] and in assay [2] was “binds” in each case.
